The values that follow come from doi:10.1101/695155.

The assay addresses p35 (UniProt Q15078). Put plainly: co-IP.
Sequence of UniProt Q15078 (Q15078 whole entry): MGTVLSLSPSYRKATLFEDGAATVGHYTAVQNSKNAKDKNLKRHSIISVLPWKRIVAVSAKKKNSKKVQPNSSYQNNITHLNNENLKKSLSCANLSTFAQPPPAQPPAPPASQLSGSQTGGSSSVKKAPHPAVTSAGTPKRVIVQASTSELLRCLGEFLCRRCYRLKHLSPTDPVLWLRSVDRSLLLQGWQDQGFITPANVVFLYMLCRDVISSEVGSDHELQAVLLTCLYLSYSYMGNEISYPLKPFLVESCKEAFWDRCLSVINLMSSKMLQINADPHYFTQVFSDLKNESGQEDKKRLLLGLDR

For “HA-CDK5-DN (D145N) (from UniProt Q00535 1-292) (enzyme)”, the cdk5 recovered by anti-p35 IP with nestin co-expressed, normalised to no nestin amounted to 1.12.
